Data reported in US20090155176A1 (Novartis, published 2009).

Molecular target: T1, β2 construct alone (mock) expressed in 293 cells (UniProt P05107 23-769)
T1 construct: whole, on cells; Negative control transfectant; also called mock (β2) transfected cells
Assay: adhesion of transfected 293 cells to plate-bound ICAM-1-Ig

T1 sequence (P05107 23-769): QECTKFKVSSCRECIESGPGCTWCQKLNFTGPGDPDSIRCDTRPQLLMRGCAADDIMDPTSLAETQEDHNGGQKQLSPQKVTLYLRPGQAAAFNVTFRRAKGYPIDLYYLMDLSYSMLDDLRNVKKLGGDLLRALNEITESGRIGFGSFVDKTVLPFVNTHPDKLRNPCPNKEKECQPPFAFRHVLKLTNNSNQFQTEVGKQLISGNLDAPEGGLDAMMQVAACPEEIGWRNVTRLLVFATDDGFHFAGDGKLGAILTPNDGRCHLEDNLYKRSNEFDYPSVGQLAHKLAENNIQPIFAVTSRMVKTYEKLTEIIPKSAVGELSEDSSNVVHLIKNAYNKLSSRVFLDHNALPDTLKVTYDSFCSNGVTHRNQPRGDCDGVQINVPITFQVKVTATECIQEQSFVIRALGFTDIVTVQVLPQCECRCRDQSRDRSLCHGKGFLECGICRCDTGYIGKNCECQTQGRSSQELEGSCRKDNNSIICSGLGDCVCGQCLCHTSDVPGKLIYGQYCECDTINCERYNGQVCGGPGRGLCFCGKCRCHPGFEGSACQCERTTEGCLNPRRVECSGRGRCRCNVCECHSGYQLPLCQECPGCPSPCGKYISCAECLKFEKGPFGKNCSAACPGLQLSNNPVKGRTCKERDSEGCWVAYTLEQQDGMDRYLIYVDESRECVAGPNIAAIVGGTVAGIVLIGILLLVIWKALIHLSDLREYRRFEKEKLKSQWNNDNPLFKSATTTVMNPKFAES

binding result: no binding
B1: ICAM-1-Ig (Fc fusion, UniProt P05362 28-480, looked up)
chain: QTSVSPSKVILPRGGSVLVTCSTSCDQPKLLGIETPLPKKELLLPGNNRKVYELSNVQEDSQPMCYSNCPDGQSTAKTFLTVYWTPERVELAPLPSWQPVGKNLTLRCQVEGGAPRANLTVVLLRGEKELKREPAVGEPAEVTTTVLVRRDHHGANFSCRTELDLRPQGLELFENTSAPYQLQTFVLPATPPQLVSPRVLEVDTQGTVVCSLDGLFPVSEAQVHLALGDQRLNPTVTYGNDSFSAKASVSVTAEDEGTQRLTCAVILGNQSQETLQTVTIYSFPAPNVILTKPEVSEGTEVTVKCEAHPRAKVTLNGVPAQPLGPRAQLLLKATPEDNGRSFSCSATLEVAGQLIHKNQTRELRVLYGPRLDERDCPGNWTWPENSQQTPMCQAWGNPLPELKCLKDGTFPLPIGESVTVTRDLEGTYLCRARSTQGEVTRKVTVNVLSPRYE
notes: not shown: Ig portion
